{"source": "paper PMC12724329", "biological_target": "gcKPNB3-FLAG (grass carp importin beta 3, FLAG-tagged) (grass carp)", "assay": "co-IP; co-IP of IRF3 with gcKPNB3 from GCRV-infected CIK cells with gcDDX56 overexpressed (+, 4 µg; ++, 8 µg plasmid) or knocked down by siRNA; bands quantified with ImageJ", "data": [{"substance": "gcIRF3-HA (grass carp IRF3, HA-tagged) (natural protein)", "values": [{"measurement": "fold change of the interaction on gcDDX56 knockdown against the siRNA control", "result": 3.23, "unit": "fold"}]}]}
